Type in all cases: biochemical, Drosophila melanogaster
Substrate in series [1]: Nc1nc2c(ncn2[C@@H]2O[C@H](COP(=O)(O)OP(=O)(O)OP(=O)(O)O)[C@@H](O)[C@H]2O)c(=O)[nH]1
Substrate in series [2]: Nc1nc2c(ncn2[C@@H]2O[C@H](COP(=O)(O)OP(=O)(O)OP(=O)(O)O)[C@@H](O)[C@H]2O)c(=O)[nH]1
This is another data set of the same source.

Substrate in series [3]: Nc1nc2c(ncn2[C@@H]2O[C@H](COP(=O)(O)OP(=O)(O)OP(=O)(O)O)[C@@H](O)[C@H]2O)c(=O)[nH]1
This is another data set of the same source.

Substrate in series [4]: Nc1nc2c(ncn2[C@@H]2O[C@H](COP(=O)(O)OP(=O)(O)OP(=O)(O)O)[C@@H](O)[C@H]2O)c(=O)[nH]1
This is another data set of the same source.

Read-outs that look alike come from different tables or passages of the source.

B1: Gycα-99B/β-100B (Drosophila melanogaster) (protein)
chain 1: MACPFFRRADSLTRQPSVIAEPGGHWALEDEELSDDALTLTHLQMAIQLLTAPSNEDLNTAVTSLVAKYRQNWPNIHKLKLDPQTFKSCANYDYLADIQELLLKMDEASASEILVLLGEELITCCCTGIIERAFRCLGTDLQEFLGSLDGVYDVLKLQEEDVTDTGFVCAGEGELIFTSERPVIAWLLLGSLKALTRMLYKVDVNIKIEPVEGDARRYRYLFSLVKDNSQTMLMGRPTSVSKTIPETVQRSNSSNASDLQMNSSSFCKMFPWHFIMNEQLELVQLGRGFSKLYKPYMADFGCQATTYFDFKRPKGLTMKFRDIVRRTYTPFLIGLNNPPGAVDFPAIGLEIKGQMVHCPESNSLLFIGSPFLDGLDGLTCNGLFISDIPLHDATREVILVGEQARAQDGLRRRMDKIKNSIEEANSAVTKERKKNVSLLHLIFPAEIAEKLWLGSSIDAKTYPDVTILFSDIVGFTSICSRATPFMVISMLEGLYKDFDEFCDFFDVYKVETIGDAYCVASGLHRASIYDAHKVAWMALKMIDACSKHITHDGEQIKMRIGLHTGTVLAGVVGRKMPRYCLFGHSVTIANKFESGSEALKINVSPTTKDWLTKHEGFEFELQPRDPSFLPKEFPNPGGTETCYFLESFRNPALDSELPLVEHINVSMKTISEGGDA
chain 2: MYGFVNYALELLVLKHFGEEIWEKIKKKAMVSMEGQFLVRQIYDDEITYNLIGAAVEILNIPADDILELFGKTFFEFCQDSGYDKILQVLGATPRDFLQNLDALHDHLGTLYPGMRAPSFRCTEKDGELLLHYYSERPGLEHIVIGIVKAVASKLHGVEVEIDIVKRKGEPIDEAEKERAIARENQQLLEDAVATTTTGSATVVLAPSSDAERNNNHNGSNGSNNNGMANNGNTVNVNNNNDGQQIASETDPSIALSTCPIAQDSFDCDGDKEQKCLRLLKNKSDDIERYDHVQFLIREINVAAKSQVDAKKDEVPDDMEFLCEAPLISPATFCKVFPFHLMFDRQMKIVQAGKAVSRVIPRVAEENCSLIEVVEAIRPHLQLNFENILSHINTIYVLQTRQGAMSSRHEQRFLRLKGQMMYIPETDRILFQCYPSVMNLDDLTKKGLYISDVPLHDAARDLVLLSEKFEAEYKLTKNLEMLTDKLQQTFRDLESEKQKTDRLLYSVLPKSVANELRHQRPVPPKRYDSVTLMFSGIVGFGQYCAANTDPDGAMKIVKMLNELYTVFDALTDSKRNLNVYKVETVGDKYMAVSGLPDHCEDHAKCMARVALDMMDMAKNVKMGSNPVQITIGIHSGEVVTGVIGNRVPRYCLFGNTVNLTSRTETTGVPGRINVSEETYRLLCMAINQDDSFHLEYRGPVIMKGKPTPMDCWFLTRATSSILGGTSSTGGSGGGGNGSLDSPLLQPATPTAGAATPIPVVAQRAAGHASVSRTSSAGGGGGGAVVGT
As for B1, in series [1] (other: in the presence of Mg2+), the Km is 370 ± 60 µM and the Vmax is 2.11 ± 0.10 pmoles cGMP/min/mg protein. In series [1] (other: in the presence of Mn2+), the Km turned out to be 31 ± 8 µM and the Vmax is listed as 204 ± 10.6 pmoles cGMP/min/mg protein.

B2: Gyc-88EL (Drosophila melanogaster) (protein)
chain: MYGLLLENLSEYIKSVYGEEKWEDIRRQAGIDSPSFSVHQVYPENLLQKLAKKAQQVLGVSERDFMDQMGVYFVGFVGQYGYDRVLSVLGRHMRDFLNGLDNLHEYLKFSYPRMRAPSFICENETKQGLTLHYRSKRRGFVYYTMGQIREVARYFYHKEMHIELVREEILFDTVHVTFQLTFDNRAFTLASLAMTREEKHLPISAHVLFEIFPFCMVFGADMVVRSIGNSLMVILPELLGKKITAWFDLVRPLIAFKFQTILNRTNNIFELVTVDPVTERFDVQNEDLLQHEDGSEPEKSLRLKGQMVYMENWRMIMFLGTPVMPDLTSLITTGLYINDLSMHDFSRDLMLAGTQQSVELKLALDQEQQKSKKLEESMRLLDEEMRRTDELLYQMIPKQVADRLRRGENPIDTCEMFDSVSILFSDIVTFTEICSRITPMEVVSMLNAMYSIFDKLTERNSVYKVETIGDAYMVVAGAPDKDANHAERVCDMALDMVDAITDLKDPSTGQHLRIRVGVHSGAVVAGIVGLKMPRYCLFGDTVNTASRMESTSIAMKVHISESTKVLIGPNYKIIERGEIDVKGKGTMGTYWLEERENRLPLQLTAALQVHPLSPVPPTPTPKTKAIMPPVSKPLTPMMPVSVSLAASMPTSNVPAVDVMASSSSISGLALTAAAAAHMSLHHQAVVAEALTGASVEVALPSVASGATGAAAGGGAPSDDRNSRIYSPVTFKDVARRSVANSPVRSCAQPDQERRRESRSNSTGHVFMRTPSEIFGSLILDTEEFLEDLQISRSSLANNNNNQSPCGFSPTPPFRIGSAPPKPRPSNPDKFTPEELAAMDQLTPPSTAPARETASCSSASLDRDKATKLKKITFSNSSSLDATTPTALAAVVCPMRTKSPPMAVAPVMHMVQASTSKGDGQRPGSKDSVSSISLHSPPPHRSNSAPARPHSMSKAARKAFLAAKQTKAMEKLDKMIEEVQEVESQSVAKAANMRLALYGHDGGGDLAAGGCPLFLPPPPQQQQQQQQSLMPSSISDSGLCSHGHSHAPSCHHMDPKMTNSQSFQHSPRGGITHQCCSGFGHGNGRHSHRMHSNACRIL
As for B2, the Km turned out to be 1730 ± 1300 µM in series [2] (other: in the presence of Mg2+) and 32 ± 11 µM in series [2] (other: in the presence of Mn2+). The figures for the Vmax in series [2] (other: in the presence of Mg2+) and in series [2] (other: in the presence of Mn2+) were 1.32 ± 0.33 pmoles cGMP/min/mg protein and 2.26 ± 0.16 pmoles cGMP/min/mg protein, respectively.

B3: Gyc-88EL/89Da (Drosophila melanogaster) (protein)
chain 1: B2 chain
chain 2: not shown
Take B3: in series [3] (other: in the presence of Mg2+), the Km stood at 2060 ± 1950 µM and the Vmax is listed as 1.92 ± 0.65 pmoles cGMP/min/mg protein. Also, in series [3] (other: in the presence of Mn2+), the Km turned out to be 149 ± 14 µM and the Vmax is given as 90.1 ± 2.34 pmoles cGMP/min/mg protein.

B4: Gyc-88EL/89Db (Drosophila melanogaster) (protein)
chain 1: B2 chain
chain 2: not shown
For B4, in series [4] (other: in the presence of Mg2+), the Km worked out at 890 ± 170 µM and the Vmax is given as 4.83 ± 0.33 pmoles cGMP/min/mg protein. Moreover, in series [4] (other: in the presence of Mn2+), the Km was 9.4 ± 4.8 µM and the Vmax is reported as 8.72 ± 0.82 pmoles cGMP/min/mg protein.

Usually Km stands for the concentration of substrate that gives half-maximal velocity.
